Laboratory results published in paper PMC5570508 (2017).

Assays:
[1] = biological target: PfEMP1 ATS-Core of variant PFF0845c (P. falciparum); experiment: NMR; 50 mM NaCl, 25°C
α17 Q1717A = experiment: FP
α17 Y1713A = experiment: FP
α17 Q1720A = experiment: FP
α17 F1716A = experiment: FP
α17 L1709A = experiment: FP
α17 F1718A = experiment: FP
α17 D1723K = experiment: FP
α17 D1722K = experiment: FP

Binder	Kd [1]	Kd (α17 Q1717A)	Kd (α17 Y1713A)	Kd (α17 Q1720A)	Kd (α17 F1716A)	Kd (α17 L1709A)	Kd (α17 F1718A)	Kd (α17 D1723K)	Kd (α17 D1722K)
spectrin α chain domain 17 (domain or fragment) AHHEKLKEAYALFQFFQDLDDEESWIEEKLIRVSSQDYGRDLQGVQNLLKKHKRLEGELVAHEPAIQNVLDMAEKLKDKAAVGQEEIQLRLAQFVEHWEKLKELAKARGLKLEESLEYLQFMQNA	350 µM								
PfEMP1 ATS of variant PFF0845c, fluorescently labeled (H159C) (domain or fragment, fluorescein (5-FAM; fluorescein-5-maleimide) on the introduced cysteine C159) KKKTKSTIDLLRVINIPKGDYGIPTMKSKNRYVPYKSGQYNGKKYIYMEGDESDDYTYIGDISSSDITSSESEYEDIDINNIYPYKSPKYKTLIDVVLEPSKRDTFNTQSDIPSDTSTNKFTDNEWNQLKQDFISNISQNSQMDLPKNNISGNIQMDTCPHVNILDDSMQEKPFITSIHDRDLHNGEEVTYNINLDDHKNMNFSTNHDNIPPKNDQNDLYTGIDLINDSISGNHNVNIYDELLKRKENELFGTNHTKHTTTNIVAKQTHNDPIVNQINLFHKWLDRHRNMCEQWDKNKKEELLDKLNEEWNKENKNNSNVTDTNGENNITRVLNSDVSIQIDMNSKPI		28 µM	63 µM	41 µM	300 µM	140 µM	63 µM	35 µM	60 µM
